The values below come from patent US20240352477A1 (ACADEMIA SINICA, published 2024).

Test [1] addresses T1, HXK6-mCherry (Ubi:HXK6-mCherry) (rice, UniProt Q8LQ68 1-506).
T1 construct: Expressed transiently in rice protoplasts; not shown: mCherry reporter (pUbi:ccdB-mCherry vector)
Briefly: co-IP with GFP-Trap from co-transfected rice protoplasts, immunoblot. As for the experimental part:
Samples were extracted from rice protoplasts in lysis buffer containing 150 mM NaCl, 0.5% NP4-0, 20 mM Tris-HCl (pH 7.5), and protease inhibitor (Roche) for 1 h at 4° C. and centrifuged at 13,000 rpm for 30 min at 4° C. Supernatants were transferred to new tubes and GFP- or RFP-conjugated proteins were pulled down with GFP-Trap®_MA beads or RFP-Trap®_MA beads. Precipitated proteins were subjected to immunoblot analysis using anti-RFP and anti-GFP antibodies.

In a further test the target is T2, HXK6-GFP (Ubi:HXK6-GFP) (rice, UniProt Q8LQ68 1-506).
T2 construct: Expressed transiently in rice protoplasts; also called Ubi:HX6-GFP; not shown: GFP reporter (pUbi:ccdB-GFP vector)
T2 sequence (Q8LQ68 whole entry): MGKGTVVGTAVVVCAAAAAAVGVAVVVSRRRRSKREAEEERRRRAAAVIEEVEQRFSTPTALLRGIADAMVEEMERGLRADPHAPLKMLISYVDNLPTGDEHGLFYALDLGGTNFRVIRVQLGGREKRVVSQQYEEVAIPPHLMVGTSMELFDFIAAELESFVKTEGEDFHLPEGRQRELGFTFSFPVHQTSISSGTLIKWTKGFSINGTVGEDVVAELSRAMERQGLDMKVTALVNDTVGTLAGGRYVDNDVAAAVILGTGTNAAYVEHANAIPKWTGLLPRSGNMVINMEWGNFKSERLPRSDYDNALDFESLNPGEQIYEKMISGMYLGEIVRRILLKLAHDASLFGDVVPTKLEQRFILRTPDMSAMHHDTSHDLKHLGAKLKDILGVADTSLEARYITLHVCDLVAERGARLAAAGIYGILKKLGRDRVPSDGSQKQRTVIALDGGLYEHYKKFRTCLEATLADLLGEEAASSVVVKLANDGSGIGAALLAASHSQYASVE
The experiment in a line: co-IP with RFP-Trap from co-transfected rice protoplasts, immunoblot. As for the experimental part:
(§1) FIGS. 13a to 13b. CIPK15 and HXK5/6 interact and localize at mitochondria under aerobic and hypoxic conditions. (FIG. 13a) Rice protoplasts were co-transfected with Ubi:CIPK15-mCherry and Ubi:HXK5-GFP, Ubi:HX6-GFP or Ubi:GFP (as negative control), before being cultured in medium containing 400 mM glucose with shaking (aerobic) for 12 h. Then, total proteins were extracted and pulled down using RFP trap®. Anti-RFP and anti-GFP antibodies were used to detect co-immunoprecipitated (co-IP) CIPK15-mCherry and HXK5-GFP or GFP, respectively. (FIG. 13b) Rice protoplasts were transfected with Ubi:CIPK15-mCherry, Ubi:HXK5-mCherry or Ubi:HXK6-mCherry and stained with the mitochondrial marker MitoTracker® Green FM, before being examined under confocal microscopy. T: Transmission image. Scale bar=[…]. […]
(§2) To explore these latter interactions in vivo using co-IP assays, we co-transfected rice protoplasts with Ubi:CIPK15-mCherry and Ubi:HXK5-GFP, Ubi:HXK6-GFP or Ubi:GFP (negative control) constructs. […] Our anti-RFP antibodies detected CIPK15-mCherry proteins in all eluents of CIPK15-mCherry co-IP fractions, but anti-GFP antibodies detected HXK5-GFP and HXK6-GFP present in the CIPK15-mCherry complex (FIG. 13a).

The target of another test is T3, HXK5-GFP (Ubi:HXK5-GFP) (rice, UniProt Q5W676 1-507).
T3 construct: Expressed transiently in rice protoplasts; not shown: GFP reporter (pUbi:ccdB-GFP vector)
T3 sequence (Q5W676 whole entry): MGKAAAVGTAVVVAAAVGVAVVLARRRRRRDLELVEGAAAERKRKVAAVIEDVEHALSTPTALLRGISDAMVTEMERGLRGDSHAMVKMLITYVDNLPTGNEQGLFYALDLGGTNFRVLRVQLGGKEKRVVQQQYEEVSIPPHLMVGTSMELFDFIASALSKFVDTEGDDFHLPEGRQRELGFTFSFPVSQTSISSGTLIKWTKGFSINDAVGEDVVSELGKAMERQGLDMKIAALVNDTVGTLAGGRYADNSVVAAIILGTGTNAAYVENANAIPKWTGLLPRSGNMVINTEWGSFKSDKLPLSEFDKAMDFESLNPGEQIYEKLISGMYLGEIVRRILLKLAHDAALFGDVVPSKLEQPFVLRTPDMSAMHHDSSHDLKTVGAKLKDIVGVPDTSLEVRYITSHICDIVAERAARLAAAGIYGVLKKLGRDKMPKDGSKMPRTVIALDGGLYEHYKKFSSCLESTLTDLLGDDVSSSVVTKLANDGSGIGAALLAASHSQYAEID
Described as above. On the procedure:
as §1, §2

Test [2] addresses T4, HXK5-nYFP (CaMV35S:HXK5-nYFP) (rice, UniProt Q5W676 1-507).
T4 construct: BiFC construct in rice protoplasts; not shown: N-terminal half of YFP (nYFP, p35S:ccdB-nYFP vector)
Briefly: bimolecular fluorescence complementation (BiFC) in rice protoplasts. On the procedure: (§3) FIGS. 3a to 3g. HXK6 and VDAC1 interact with CIPK15 on mitochondria and suppress CIPK15-regulated promoters. (FIG. 3a) BiFC assay in which rice protoplasts were co-transfected with CaWV35S:cYFP-CIPK15 or CaWV-nYFP (negative control) and CaMV35S:HXK5/6-nYFP or CaMV35S:cYFP (negative control). (FIG. 3b, FIG. 3c, FIG. 3f) Rice protoplasts were transfected with plasmids, cultured in medium containing 400 mM glucose with shaking for 12 h, and then examined under confocal microscopy. Scale bar=[…]. C: cytoplasm; Mt: mitochondria. (FIG. 3b) Rice protoplasts were co-transfected with Ubi:CIPK15-mTagBFP and Ubi:HXK6-mCherry and stained with the mitochondrial marker MitoTracker® Green FM. (FIG. 3c) Rice protoplasts were co-transfected with Ubi:CIPK15-mCherry and Ubi:GFP, Ubi:HXK6-GFP, or Ubi:HXK6(Ri) constructs. (FIG. 3d, FIG. 3g) Rice protoplasts were co-transfected with effector and reporter plasmids, cultured in medium contained 400 mM glucose with shaking, and assayed for luciferase activity. (FIG. 3e) Rice protoplasts were co-transfected with Ubi:VDAC1-GFP, Ubi:CIPK15-HA and Ubi:HXK6-GFP or Ubi:HXK6-mCherry, cultured in medium containing 400 mM glucose with shaking for 12 h, and total proteins were extracted and pulled down using GFP trap®. Anti-GFP, anti-HA and anti-mRFP antibodies were used to detect HXK6-GFP or VDAC1-GFP, CIPK15-HA, and HXK6-mCherry, respectively. […]

Test [3] deals with T5, HXK6-nYFP (CaMV35S:HXK6-nYFP) (rice, UniProt Q8LQ68 1-506).
T5 construct: BiFC construct in rice protoplasts; not shown: N-terminal half of YFP (nYFP, p35S:ccdB-nYFP vector)
T5 sequence (Q8LQ68 whole entry): as the sequence (Q8LQ68 whole entry) above
Described as above. As for the experimental part:
as §3

T1 sequence (Q8LQ68 whole entry): as above
T4 sequence (Q5W676 whole entry): as the sequence (Q5W676 whole entry) above

B1: VDAC1-GFP (Ubi:VDAC1-GFP) (other, rice, UniProt Q6K548 2-274, looked up)
chain: VGPGLYPEIGKKARDLLYRDYQTDHKFTLTTYTSNGVAITATSTKKADLIFGEIQSQIKNKNITVDVKANSDSNVVTTVTVDELTPGLKSILSFAVPDQRSGKFELQYSHDYAGVSASIGLTASPVVNLSSVFGTKALAVGADVSLDTATGNLTKYNAGLSFSNDDLIASLNLNNKGDSLTASYYHIVNHSATAVGAELTHSFSSNENSLTFGTQHTLDPLTVVKARFNNSGKASALLQHEWRPKSVWTISAEVDTKAIDKSSKVGIAVALKP
notes: Expressed transiently in rice protoplasts and pulled down with GFP-Trap; not shown: GFP reporter (pUbi:ccdB-GFP vector)
Take B1: the binding result in test [1] is reported as “binds”.

B2: CIPK15-mCherry (Ubi:CIPK15-mCherry) (enzyme)
chain: MESRGKILMERYELGRLLGKGTFGKVHYARNLESNQSVAIKMMDKQQILKVGLSEQIRREITTMRLVAHKNIVQLHEVMATRNKIYFVMEYVKGGELFEKVAKRGKLTEVVAHKYFQQLISAVDYCHSRGVYHRDLKPENLLLDENENLKVSDFGLSALSESKRQDGLLHTTCGTPAYVAPEVISKIGYDGAKSDIWSCGVILFVLVAGYLPFQGPNLMEMYRKIQHGEFRCPGWFSRKLQKLLYKIMDPNPSTRISIQKIKESTWFRKGPEENRILKERTLNENTTKNVAPVLGVRRKKNAHEDVKPMSVTNLNAFEIISFSKGFDLSGMFIVKEWRNEARFTSDKSASTIISKLEDVAKALNLRVRKKDNGVVKMQGRKEGRNGVLQFDIEIFEVTTSYHIIEMKQTSGDSLEYRQLLEEGIRPALKDIVLA
notes: Expressed transiently in rice protoplasts; not shown: mCherry reporter (pUbi:ccdB-mCherry vector)
Take B2: the binding result in the test with HXK6-GFP (Ubi:HXK6-GFP) and with HXK5-GFP (Ubi:HXK5-GFP) was “binds” in each case.

B3: cYFP-CIPK15 (CaMV35S:cYFP-CIPK15) (enzyme)
chain: MESRGKILMERYELGRLLGKGTFGKVHYARNLESNQSVAIKMMDKQQILKVGLSEQIRREITTMRLVAHKNIVQLHEVMATRNKIYFVMEYVKGGELFEKVAKRGKLTEVVAHKYFQQLISAVDYCHSRGVYHRDLKPENLLLDENENLKVSDFGLSALSESKRQDGLLHTTCGTPAYVAPEVISKIGYDGAKSDIWSCGVILFVLVAGYLPFQGPNLMEMYRKIQHGEFRCPGWFSRKLQKLLYKIMDPNPSTRISIQKIKESTWFRKGPEENRILKERTLNENTTKNVAPVLGVRRKKNAHEDVKPMSVTNLNAFEIISFSKGFDLSGMFIVKEWRNEARFTSDKSASTIISKLEDVAKALNLRVRKKDNGVVKMQGRKEGRNGVLQFDIEIFEVTTSYHIIEMKQTSGDSLEYRQLLEEGIRPALKDIVLA
notes: BiFC construct in rice protoplasts; not shown: C-terminal half of YFP (cYFP, p35S:cYFP-ccdB vector)
B3: the binding result in test [2] and in test [3] was “binds” in each case.
